Eight molecules from patent US20110123529A1 (published 2011) can be followed below.

For assay [1], the target named is T1, active catalytic domain of MMP 1 (UniProt P03956 100-269, limits assumed).
T1 construct: domain: catalytic domain
T1 sequence (looked up): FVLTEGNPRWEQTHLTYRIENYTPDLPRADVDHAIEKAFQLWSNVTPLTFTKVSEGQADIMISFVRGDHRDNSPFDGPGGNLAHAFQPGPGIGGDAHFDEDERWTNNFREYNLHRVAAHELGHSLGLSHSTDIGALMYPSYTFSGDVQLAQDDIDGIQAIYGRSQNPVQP
The assay can be described thus: dot blot, 50 ng catalytic domain on Hybond C-extra, periplasmic extract, anti-c-myc detection. Here is the method:
(§1) In order to check for non specific binding to other MMPs a similar approach was followed in which 50 ng of active catalytic domain of MMP 1, 2, 3, 7, 9 and 13 (all from Biomol Research laboratories Inc) was immobilized on Hybond C-extra. The membranes were blocked with skimmed milk overnight at 4° C., washed 5 times with PBS and transferred to 1.5 ml tubes. Periplasmic extracts (100 μl) were tenfold diluted in 1% skimmed milk and 1 ml was applied per membrane (2 cm²) and rotated for 1 hour at room temperature. Membranes were washed 5 times with PBS/0.05% Tween-20. Detection was performed using anti-c-myc antibody, followed by anti-mouse-HRP and DAP as substrate. Membranes were incubated with substrate at room temperature until clear spots were visible.

Assay [2] addresses T2, active catalytic domain of MMP 2 (UniProt P08253 110-452, limits assumed).
T2 construct: domain: catalytic domain
The assay is described as above. Here is the method: as §1

Assay [3] has as its target T3, active catalytic domain of MMP 3 (UniProt P08254 100-272, limits assumed).
T3 construct: domain: catalytic domain
The assay is described as above. Here is the method:
as §1

The target in assay [4] is T4, active catalytic domain of MMP 7 (UniProt P09237 95-267).
T4 construct: domain: catalytic domain
T4 sequence (looked up): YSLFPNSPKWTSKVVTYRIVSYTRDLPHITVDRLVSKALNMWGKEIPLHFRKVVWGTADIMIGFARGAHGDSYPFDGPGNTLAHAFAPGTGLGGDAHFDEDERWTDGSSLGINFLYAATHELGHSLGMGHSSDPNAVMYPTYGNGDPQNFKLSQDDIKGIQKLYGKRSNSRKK
The assay is described as above. Here is the method:
as §1

Assay [5] has as its target T5, active catalytic domain of MMP 9 (UniProt P14780 107-444, limits assumed).
T5 construct: domain: catalytic domain
The assay is described as above. Here is the method: as §1

Assay [6] deals with active catalytic domain of MMP 13 (UniProt P45452 104-274). Described as above. On the procedure:
as §1

Assay [7] deals with T6, human MMP-12 catalytic domain (human, UniProt P39900 106-263).
T6 construct: domain: catalytic domain; Sources: Prof; H. Tschesche (Universität Bielefeld) and Biomol Research laboratories Inc (SE 138-9090); also called human macrophage elastase
In words: ELISA / dot blot on immobilized human MMP-12 catalytic domain, periplasmic extract, anti-c-myc detection. Here is the method: To examine the clones selected using solid phase coated human MMP-12, plates were coated with human MMP-12 catalytic domain at a concentration of 1 μg/ml overnight at 4° C. Plates were washed 5 times with PBS/0.05% Tween-20. Wells were blocked with 1% skimmed milk for 2 hrs at room temperature. Periplasmic extracts (100 μl) were applied to the wells and incubated for 1 hour at room temperature. Plates were washed 5 times with PBS/0.05% Tween-20. Detection was performed using anti-c-myc antibody, followed by anti-mouse-HRP and ABTS/H₂O₂ as substrate. Plates were read at 405 nm after 30 minutes incubation at room temperature.
To examine the clones selected using membrane immobilized human MMP-12, 50 ng human MMP-12 catalytic domain samples were spotted on PVDF membrane as described in the manufacturers guidelines. 50 ng lysozyme was spotted as a negative control. The membranes were blocked with skimmed milk overnight at 4° C., washed 5 times with PBS and transferred to 1.5 ml tubes. Periplasmic extracts (100 μl) were tenfold diluted in 1% skimmed milk and 1 ml was applied per membrane (2 cm²) and rotated for 1 hour at room temperature. Membranes were washed 5 times with PBS/0.05% Tween-20. Detection was performed using anti-c-myc antibody, followed by anti-mouse-HRP and DAP as substrate. Membranes were incubated with substrate at room temperature until clear spots were visible.
(An ELISA detects its analyte on a solid surface through an enzyme-linked reagent.)

The target of assay [8] is T7, human EGFR expressed on cells (Her-14 mouse fibroblasts; A431 carcinoma cells) (human, UniProt P00533 25-1210).
T7 construct: whole, on cells; Parental NIH3T3 clone 2.2 (3T3) cells served as EGFR-negative control; also called EGFR^+ cells
The assay can be described thus: phage ELISA on cells.

In the next assay the target is T8, human TNF-alpha (human, UniProt P01375 77-233).
T8 construct: also called TNFα; biotinylated TNF-alpha
The assay can be described thus: competition ELISA: VHH preincubated with biotinylated TNF-alpha, binding to immobilized receptor extracellular domain. Here is the method: 100 μl of this mixture was transferred to a well of a microtiter plate, in which the extracellular domain of the receptor was immobilized.

B1: MMP-12 P1-26 (VHH)
VHH: QVQLQESGGGLVRAGGSLRLSCVASGRTLSKYRMGWFRQFPGKERELVAEIEWKSSSTWYRDSVKGRFTISRDNAKNTVYLRMNSLKPEDTAVYYCAAATLGEPLVKYTYWGQGTQVTVSS
notes: Tested as periplasmic extract, detected through its c-myc tag
B1: the binding result in [1], in assay [2], in assay [3], in assay [4], in assay [5] and in [6] was “no binding” each time. The binding result in assay [7] is given as “binds”.

B2: EGFR-F11 (VHH)
VHH: QVQLQESGGRLVQAGGSLRLSCAASEHTFRGYAIGWFRQAPGKEREFVSSITYDGTLTNYADSVTGRFTISRDNAKNTVYLQMNSLKPEDTAVYVCAAGYSYRYTTLNQYDSWGQGTQVTVSS
notes: From the internalization selection; also called clone EGFR-F11
As for B2, in [8], the binding result was “binds”.

B3: VHH#3E-His tag (VHH)
VHH: QVQLQESGGGLVQPGGSLRLSCAASGRTFSDHSGYTYTIGWFRQAPKEREFVARIYWSSGNTYYADSVKGRFAISRDIAKNTVDLTMNNLEPEDTAVYYCAARDGIPTSRSVESYNYWGQGTQVTVSS
notes: protein was purified by IMAC; also called TNF3E; VHH TNF3E
For the molecule B3, the binding result with human TNF-alpha is reported as “binds”.

B4: EGFR-B11 (VHH)
VHH: QVQLQDSGGGLVQAGGSLRLSCAASRFSSAQYAIGWFRQAPGKEREGVSYITFSGGPTGYADSVKGRFTVSRDNAKNTVYLQMNSLKPEDTAVYYCAARPYTRPGSMWVSSLYDNWGQGTQVTVSS
notes: From the internalization selection
On to B4, for which the binding result in assay [8] is recorded as “binds”.

B5: MMP-12 P5-29 (VHH)
VHH: QVQLQESGGGLVQAGGSLRLSCAASGRTFTVYTTGWFRQAPGKEREFVAAIDWSGSSTYYTDSVKGRFTISRDNTKNTVYLQMNSLKPEDTAVYYCAARDAIVGVTDTSGYRYWGQGTQVTVSS
notes: Selected on active MMP-12 on nitrocellulose (Hybond-C); also called clone P5-29
With B5, in [7], the binding result is “binds”.

B6: MMP-12 P1-1 (VHH)
VHH: QVQLQESGGGLVQPGGSLRLSCVASGFTFSDYPMAWVRQAPGKGLEWISVINSGGVNTSYAASVKGRFTISRDNAKNTLFLQMNSLKPEDTAVYYCAKYSLKNEQYWRGQGTQVTVSS
notes: Tested as periplasmic extract, detected through its c-myc tag (pAX004: c-myc and hexahistidine tags)
As to B6, the binding result in [1], in assay [2], in assay [3], in [4], in [5] and in [6] was “no binding” each time. Moreover, in assay [7], the binding result is “binds”.

B7: MMP-12 P1-41 (VHH)
VHH: QVQLQDSGGGLVRTGDSLRLSCVVFGGTISTYAMGWFRRAPGKEREFVAAIDASGGFTEYADSVRGRFRIARDNPLSAVYLQMNSLKPEDTAFYYCAADKDRDTVVRFTTTPNEYDYWGQGTQVTVSS
notes: as for B1
As to B7, the binding result in assay [1], in assay [2], in assay [3], in [4], in assay [5] and in assay [6] was “no binding” each time. The binding result in [7] was “binds”.

B8: MMP-12 P1-44 (VHH)
VHH: QVQLQESGGGLVQPGGSLRLSCAASGFTFNNHWLYWVRQAQGKGLEWVSAINPGGSTVYLDSVKGRFTISRGNTKNTLYLQMNSLKSEDTAVYYCTKAMAWATDWDEYDLWGQGTQVTVSS
notes: as for B1
Take B8: the binding result in [1], in assay [2], in [3], in [4], in assay [5] and in [6] was “no binding” each time. Moreover, in assay [7], the binding result is recorded as “binds”.
